System: Arm-Tcf transcriptional activity
Test: Tcf-reporter gene (TOPFLASH luciferase) assay in HEK293 cells
Format: cell-based
Settings: 4 ng pcDNA3-ΔArm, 200 ng pcDNA3-EGFP-hLgs-peptide, 48 h after transfection, normalized for renilla luciferase
Method: FIG. 15(A) Effect of the expression of Lgs sequence homology 2-peptides on Tcf transcriptional activity. HEK293 cells at 50% confluence were plated into 24-well plates and transfected by a lipofection method. 240 ng of TOPFLASH luciferase reporter plasmid (Upstate biotechnology, New York, USA), 4 ng of pcDNA3-ΔArm, 200 ng of pcDNA3-EGFP-Lgs-peptide and 10 ng of a renilla luciferase reporter plasmid pRL-SV40 (Promega Corporation, Madison USA) were diluted into 25 μl of OPTI-MEM Medium (Life Technologies, Inc.) and combined with 1.2 μl of Lipofectamine (Life Technologies, Inc.) in 25 μl OPTI-MEM. After incubation for 20 min, 0.175 ml of OPTI-MEM was added and the mixtures were overlaid onto monolayers of cells. After culturing at 37° C./5% CO2 for 6 hr, 0.225 ml of OPTI-MEM containing 20% FCS was added to the cultures. […]
The effect of Lgs on Tcf transactivation activity can be performed in a cell culture system using a Tcf reporter gene. A Tcf-responsive reporter gene is a contruct which comprises a readily detectable or assayable gene such β-galactosidase, green fluorescent protein, chloramphenicol acetyltransferase or luciferase, linked in cis to a Tcf response element and a minimal promoter. […]

B1: hLgs/Bcl9(279–392): Fragment (amino acids 279–392) of human Lgs/Bcl9 with a sequence homology domain, expressed as EGFP fusion from pcDNA3 (protein)
chain: PGVENKLIPSVGSPASSTPLPPDGTGPNSTPNNRAVTPVSQGSNSSSADPKAPPPPPVSSGEPPTLGENPDGLSQEQLEHRERSLQTLRDIQRMLFPDEKEFTGAQSGGPQQNP
modifications: left off: large carriers
Arm-Tcf transcriptional activity (Tcf-driven luciferase): strongly inhibit

B2: hLgs/Bcl9(199–392): Fragment (amino acids 199–392) of human Lgs/Bcl9 with a sequence homology domain, expressed as EGFP fusion from pcDNA3 (protein)
chain: TIVSFHIQNISNNKTERSTAPLNTQISALRNDPKPLPQQPPAPANQDQNSSQNTRLQPTPPIPAPAPKPAAPPRPLDRESPGVENKLIPSVGSPASSTPLPPDGTGPNSTPNNRAVTPVSQGSNSSSADPKAPPPPPVSSGEPPTLGENPDGLSQEQLEHRERSLQTLRDIQRMLFPDEKEFTGAQSGGPQQNP
modifications: left off: large carriers
Arm-Tcf transcriptional activity (Tcf-driven luciferase): strongly inhibit

Source: US7252951B2, “Essential downstream component of the wingless signaling pathway and therapeutic and diagnostic applications based thereon” (Universität Zurich, priority 2000, dated 2007)
